Reference: article PMC12311110

Columns and labels:
[1] = biological target: endogenous VPS26, O75436; experiment: GFP-based co-IP, western blot band quantification; conditions: chain shown with the change; HEK293T cells, transient transfection; normalised to GFP band intensity; n = 3; parent: est. 100; read off a plot
[2] = biological target: VPS35, Q96QK1; experiment: GFP-based co-IP, western blot band quantification; conditions: chain shown with the change; HEK293T cells, transient transfection; normalised to GFP band intensity; n = 3; parent: est. 100; read off a plot

percent of parent (relative intensity (WT = 100)) [1]: 18
percent of parent (relative intensity (WT = 100)) [2]: 22
B1: GFP-DENND4C fragment 1087-1271, WT, Q5VZ89 Y1239D (protein)
chain: PKTSLLHIARTHSFENVSCHLPDSRTCMSESTWNPEHRSSPVPEMLEESQELLEPVVDDVPKTTATVDTYESLLSDSNSNQSRDLKTVSKDLRNKRSSLYGIAKVVQREDVETGLDPLSLLATECTGGKTPDSEDKLFSPVIARNLADEIESDMNLKSPLGSKSSSMELHREENRESGMTTAFIH
